Assay results from US20180155451A1 (published 2018).

T1: FcγRIIa R (human FcγRIIa, allotype R, Arg at position 131), extracellular domain with C-terminal His tag (human, UniProt P12318 34-217)
T1 construct: extracellular domain; expressed in FreeStyle293 cells; analyte in Biacore; also called 2aR; FcgRIIa R
T1 sequence (looked up): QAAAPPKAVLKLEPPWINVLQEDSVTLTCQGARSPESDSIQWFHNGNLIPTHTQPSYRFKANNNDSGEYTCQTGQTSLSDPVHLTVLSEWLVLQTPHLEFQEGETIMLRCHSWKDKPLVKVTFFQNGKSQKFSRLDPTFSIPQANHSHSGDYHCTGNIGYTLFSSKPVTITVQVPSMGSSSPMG

B1: GpH7-A5/GpH7-B3 variant A330_05P/GpL16-k0 (antibody, human IgG1, kappa)
heavy 1: not shown
heavy 2: not shown
light: DIVMTQSPLSLPVTPGEPASISCQASESLVHSNRNTYLHWYLQKPGQSPQLLIYKVSNRFSGVPDRFSGSGSGTDFTLKISRVEAEDVGVYYCSQNTHVPPTFGQGTKVEIERTVAAPSVFIFPPSDEQLKSGTASVVCLLNNFYPREAKVQWKVDNALQSGNSQESVTEQDSKDSTYSLSSTLTLSKADYEKHKVYACEVTHQGLSSPVTKSFNRGEC
notes: also called He Ab A330_05P
B2: GpH7-B3 variant T335_01G/GpL16-k0 (antibody, human IgG1, kappa)
heavy: not shown
light: B1 light
notes: homodimerized antibody, mutation in both H chains; also called Ho Ab
B3: GpH7-B3 variant S337_16H/GpL16-k0 (antibody, human IgG1, kappa)
heavy: not shown
light: B1 light
notes: as for B2
B4: GpH7-B3 variant S337_10E/GpL16-k0 (antibody, human IgG1, kappa)
heavy: not shown
light: B1 light
notes: as for B2
B5: GpH7-B3 variant S267_09D/GpL16-k0 (antibody, human IgG1, kappa)
heavy: not shown
light: B1 light
notes: as for B2
B6: GpH7-B3 variant T335_20W/GpL16-k0 (antibody, human IgG1, kappa)
heavy: not shown
light: B1 light
notes: as for B2
B7: GpH7-B3 variant S337_15Y/GpL16-k0 (antibody, human IgG1, kappa)
heavy: not shown
light: B1 light
notes: as for B2
B8: GpH7-B3 variant S239_06M/GpL16-k0 (antibody, human IgG1, kappa)
heavy: not shown
light: B1 light
notes: as for B2
B9: GpH7-B3 variant Q295_10E/GpL16-k0 (antibody, human IgG1, kappa)
heavy: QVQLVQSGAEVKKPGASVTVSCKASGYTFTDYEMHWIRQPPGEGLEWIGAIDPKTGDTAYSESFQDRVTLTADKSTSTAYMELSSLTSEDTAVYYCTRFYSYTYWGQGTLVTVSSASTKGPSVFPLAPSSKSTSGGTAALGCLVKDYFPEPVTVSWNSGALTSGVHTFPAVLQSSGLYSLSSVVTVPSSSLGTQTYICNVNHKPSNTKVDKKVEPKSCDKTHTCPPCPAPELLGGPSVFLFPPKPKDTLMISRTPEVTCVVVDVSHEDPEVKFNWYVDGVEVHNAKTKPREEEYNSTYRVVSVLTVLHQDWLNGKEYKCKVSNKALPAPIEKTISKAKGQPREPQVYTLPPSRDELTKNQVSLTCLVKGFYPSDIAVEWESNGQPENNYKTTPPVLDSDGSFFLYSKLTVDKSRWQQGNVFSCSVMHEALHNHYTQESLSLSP
light: B1 light
notes: as for B2
B10: GpH7-B3 variant S337_07I/GpL16-k0 (antibody, human IgG1, kappa)
heavy: not shown
light: B1 light
notes: as for B2
B11: GpH7-B3 variant P331_14T/GpL16-k0 (antibody, human IgG1, kappa)
heavy: not shown
light: B1 light
notes: as for B2
B12: GpH7-B3 variant Y296_19Q/GpL16-k0 (antibody, human IgG1, kappa)
heavy: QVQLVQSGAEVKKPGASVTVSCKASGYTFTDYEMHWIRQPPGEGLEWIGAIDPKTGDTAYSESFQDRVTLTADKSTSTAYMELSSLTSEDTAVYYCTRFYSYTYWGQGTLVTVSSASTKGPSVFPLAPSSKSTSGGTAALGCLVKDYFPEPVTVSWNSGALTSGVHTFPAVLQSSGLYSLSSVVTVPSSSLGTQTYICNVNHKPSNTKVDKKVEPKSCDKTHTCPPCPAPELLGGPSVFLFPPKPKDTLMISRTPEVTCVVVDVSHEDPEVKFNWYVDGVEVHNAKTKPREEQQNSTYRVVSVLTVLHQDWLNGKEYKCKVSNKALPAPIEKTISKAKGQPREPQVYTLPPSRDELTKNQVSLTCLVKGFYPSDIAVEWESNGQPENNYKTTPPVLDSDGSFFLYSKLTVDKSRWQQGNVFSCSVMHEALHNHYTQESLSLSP
light: B1 light
notes: as for B2
B13: GpH7-B3 variant T335_13S/GpL16-k0 (antibody, human IgG1, kappa)
heavy: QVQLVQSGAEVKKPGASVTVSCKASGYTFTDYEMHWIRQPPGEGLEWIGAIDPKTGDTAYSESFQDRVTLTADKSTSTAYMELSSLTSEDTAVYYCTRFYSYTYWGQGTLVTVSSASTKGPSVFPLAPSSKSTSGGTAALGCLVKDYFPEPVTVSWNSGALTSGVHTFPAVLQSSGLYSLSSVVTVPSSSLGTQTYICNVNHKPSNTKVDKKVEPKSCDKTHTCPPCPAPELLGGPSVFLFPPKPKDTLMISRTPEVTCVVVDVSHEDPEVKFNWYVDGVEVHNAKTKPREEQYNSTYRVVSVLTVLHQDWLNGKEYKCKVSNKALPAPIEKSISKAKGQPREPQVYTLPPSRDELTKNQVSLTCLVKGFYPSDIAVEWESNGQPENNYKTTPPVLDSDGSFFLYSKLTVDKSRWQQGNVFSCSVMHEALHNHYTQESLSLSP
light: B1 light
notes: as for B2
B14: GpH7-B3 variant T335_18N/GpL16-k0 (antibody, human IgG1, kappa)
heavy: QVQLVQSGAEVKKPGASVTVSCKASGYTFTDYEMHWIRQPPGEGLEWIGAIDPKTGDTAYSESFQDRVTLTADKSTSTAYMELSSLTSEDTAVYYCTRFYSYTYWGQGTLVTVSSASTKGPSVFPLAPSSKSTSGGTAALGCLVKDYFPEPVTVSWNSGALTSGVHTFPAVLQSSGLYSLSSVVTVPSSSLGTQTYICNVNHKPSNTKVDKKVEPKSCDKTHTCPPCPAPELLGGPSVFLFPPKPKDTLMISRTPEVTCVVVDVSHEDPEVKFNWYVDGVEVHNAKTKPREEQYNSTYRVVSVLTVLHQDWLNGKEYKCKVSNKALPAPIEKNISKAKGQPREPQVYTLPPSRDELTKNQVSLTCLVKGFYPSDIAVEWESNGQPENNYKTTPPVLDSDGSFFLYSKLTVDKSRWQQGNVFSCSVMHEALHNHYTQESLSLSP
light: B1 light
notes: as for B2
B15: GpH7-B3 variant T335_16H/GpL16-k0 (antibody, human IgG1, kappa)
heavy: not shown
light: B1 light
notes: as for B2
B16: GpH7-B3 variant S267_19Q/GpL16-k0 (antibody, human IgG1, kappa)
heavy: not shown
light: B1 light
notes: as for B2
B17: GpH7-B3 variant S337_09D/GpL16-k0 (antibody, human IgG1, kappa)
heavy: not shown
light: B1 light
notes: as for B2
B18: GpH7-B3 variant S239_07I/GpL16-k0 (antibody, human IgG1, kappa)
heavy: not shown
light: B1 light
notes: as for B2
B19: GpH7-B3 variant S337_03V/GpL16-k0 (antibody, human IgG1, kappa)
heavy: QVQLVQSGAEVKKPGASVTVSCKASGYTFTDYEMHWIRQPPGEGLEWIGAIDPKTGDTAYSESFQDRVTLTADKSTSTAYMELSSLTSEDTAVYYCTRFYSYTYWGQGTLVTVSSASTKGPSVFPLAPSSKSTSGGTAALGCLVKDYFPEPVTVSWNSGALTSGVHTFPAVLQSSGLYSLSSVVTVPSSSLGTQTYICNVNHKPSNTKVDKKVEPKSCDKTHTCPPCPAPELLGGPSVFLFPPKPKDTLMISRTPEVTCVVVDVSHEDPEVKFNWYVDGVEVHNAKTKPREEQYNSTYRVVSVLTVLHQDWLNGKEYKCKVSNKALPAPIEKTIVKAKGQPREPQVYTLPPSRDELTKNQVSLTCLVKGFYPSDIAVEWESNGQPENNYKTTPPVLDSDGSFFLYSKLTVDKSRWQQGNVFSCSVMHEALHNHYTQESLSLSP
light: B1 light
notes: as for B2
B20: GpH7-B3 variant S298_08L/GpL16-k0 (antibody, human IgG1, kappa)
heavy: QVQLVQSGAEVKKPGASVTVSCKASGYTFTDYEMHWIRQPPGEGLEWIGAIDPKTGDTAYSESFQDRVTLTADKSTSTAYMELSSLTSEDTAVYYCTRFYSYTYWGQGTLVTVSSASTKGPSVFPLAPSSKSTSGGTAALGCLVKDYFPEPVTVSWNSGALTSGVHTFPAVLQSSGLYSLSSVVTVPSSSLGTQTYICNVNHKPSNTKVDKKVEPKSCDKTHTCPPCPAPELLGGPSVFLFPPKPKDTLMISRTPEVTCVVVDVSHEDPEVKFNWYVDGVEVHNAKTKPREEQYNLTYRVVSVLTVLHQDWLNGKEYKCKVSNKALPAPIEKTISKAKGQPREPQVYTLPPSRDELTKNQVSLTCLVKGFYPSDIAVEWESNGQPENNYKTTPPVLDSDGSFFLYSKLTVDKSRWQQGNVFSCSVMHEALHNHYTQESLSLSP
light: B1 light
notes: as for B2
B21: GpH7-B3 variant Y296_07I/GpL16-k0 (antibody, human IgG1, kappa)
heavy: not shown
light: B1 light
notes: as for B2
B22: GpH7-B3 variant Y296_10E/GpL16-k0 (antibody, human IgG1, kappa)
heavy: not shown
light: B1 light
notes: as for B2
B23: GpH7-B3 variant T335_02A/GpL16-k0 (antibody, human IgG1, kappa)
heavy: not shown
light: B1 light
notes: as for B2
B24: GpH7-B3 variant S337_20W/GpL16-k0 (antibody, human IgG1, kappa)
heavy: not shown
light: B1 light
notes: as for B2
B25: GpH7-B3 variant T335_05P/GpL16-k0 (antibody, human IgG1, kappa)
heavy: not shown
light: B1 light
notes: as for B2
B26: GpH7-B3 variant S337_12R/GpL16-k0 (antibody, human IgG1, kappa)
heavy: not shown
light: B1 light
notes: as for B2
B27: GpH7-B3 variant T335_15Y/GpL16-k0 (antibody, human IgG1, kappa)
heavy: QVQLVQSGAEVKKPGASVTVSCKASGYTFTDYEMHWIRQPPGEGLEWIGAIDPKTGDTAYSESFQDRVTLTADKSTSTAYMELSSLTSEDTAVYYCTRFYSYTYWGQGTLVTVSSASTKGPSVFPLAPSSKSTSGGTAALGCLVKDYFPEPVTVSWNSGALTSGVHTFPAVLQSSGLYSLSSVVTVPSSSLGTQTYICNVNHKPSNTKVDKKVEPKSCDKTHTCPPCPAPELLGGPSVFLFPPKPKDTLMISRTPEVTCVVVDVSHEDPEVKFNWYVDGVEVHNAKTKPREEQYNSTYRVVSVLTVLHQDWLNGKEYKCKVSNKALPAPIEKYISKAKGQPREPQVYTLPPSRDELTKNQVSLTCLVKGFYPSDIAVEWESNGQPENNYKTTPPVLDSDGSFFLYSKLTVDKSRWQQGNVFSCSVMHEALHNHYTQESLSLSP
light: B1 light
notes: as for B2
B28: GpH7-B3 variant S337_19Q/GpL16-k0 (antibody, human IgG1, kappa)
heavy: not shown
light: B1 light
notes: as for B2
B29: GpH7-B3 variant T335_12R/GpL16-k0 (antibody, human IgG1, kappa)
heavy: not shown
light: B1 light
notes: as for B2
B30: GpH7-B3 variant T335_10E/GpL16-k0 (antibody, human IgG1, kappa)
heavy: not shown
light: B1 light
notes: as for B2
B31: GpH7-B3 variant Y296_13S/GpL16-k0 (antibody, human IgG1, kappa)
heavy: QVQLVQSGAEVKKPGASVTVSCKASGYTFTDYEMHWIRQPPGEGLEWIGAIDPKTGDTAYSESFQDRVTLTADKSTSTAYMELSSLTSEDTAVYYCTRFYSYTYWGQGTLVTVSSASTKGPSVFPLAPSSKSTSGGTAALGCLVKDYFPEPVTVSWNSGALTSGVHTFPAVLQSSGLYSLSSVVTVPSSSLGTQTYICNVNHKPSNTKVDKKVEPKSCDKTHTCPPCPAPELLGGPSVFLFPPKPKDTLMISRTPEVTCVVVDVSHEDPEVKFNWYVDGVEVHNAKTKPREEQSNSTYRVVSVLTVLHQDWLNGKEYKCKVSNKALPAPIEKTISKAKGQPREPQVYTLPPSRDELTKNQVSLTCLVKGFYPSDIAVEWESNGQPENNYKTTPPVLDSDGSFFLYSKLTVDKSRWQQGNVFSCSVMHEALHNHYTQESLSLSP
light: B1 light
notes: as for B2
B32: GpH7-B3 variant S239_14T/GpL16-k0 (antibody, human IgG1, kappa)
heavy: not shown
light: B1 light
notes: as for B2
B33: GpH7-B3 variant S337_11K/GpL16-k0 (antibody, human IgG1, kappa)
heavy: not shown
light: B1 light
notes: as for B2
B34: GpH7-B3 variant S324_04F/GpL16-k0 (antibody, human IgG1, kappa)
heavy: not shown
light: B1 light
notes: as for B2
B35: GpH7-B3 variant S337_08L/GpL16-k0 (antibody, human IgG1, kappa)
heavy: not shown
light: B1 light
notes: as for B2
B36: GpH7-B3 variant S267_06M/GpL16-k0 (antibody, human IgG1, kappa)
heavy: not shown
light: B1 light
notes: as for B2
B37: GpH7-B3 variant S298_06M/GpL16-k0 (antibody, human IgG1, kappa)
heavy: not shown
light: B1 light
notes: as for B2
B38: GpH7-B3 variant Q295_06M/GpL16-k0 (antibody, human IgG1, kappa)
heavy: not shown
light: B1 light
notes: as for B2
B39: GpH7-B3 variant S337_06M/GpL16-k0 (antibody, human IgG1, kappa)
heavy: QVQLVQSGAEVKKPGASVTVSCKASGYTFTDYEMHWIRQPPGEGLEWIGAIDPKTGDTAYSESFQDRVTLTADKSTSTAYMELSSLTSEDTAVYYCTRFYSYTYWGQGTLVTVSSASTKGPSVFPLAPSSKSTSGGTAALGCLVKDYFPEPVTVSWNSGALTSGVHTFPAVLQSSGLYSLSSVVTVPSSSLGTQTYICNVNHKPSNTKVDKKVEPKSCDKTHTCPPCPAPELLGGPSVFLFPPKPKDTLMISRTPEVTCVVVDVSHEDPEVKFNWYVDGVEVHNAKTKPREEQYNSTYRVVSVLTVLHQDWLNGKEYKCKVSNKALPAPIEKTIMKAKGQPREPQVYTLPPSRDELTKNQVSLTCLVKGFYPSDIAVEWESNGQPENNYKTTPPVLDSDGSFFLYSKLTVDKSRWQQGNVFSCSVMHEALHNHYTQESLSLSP
light: B1 light
notes: as for B2
B40: GpH7-B3 variant S324_06M/GpL16-k0 (antibody, human IgG1, kappa)
heavy: not shown
light: B1 light
notes: as for B2
B41: GpH7-B3 variant Y296_20W/GpL16-k0 (antibody, human IgG1, kappa)
heavy: not shown
light: B1 light
notes: as for B2
B42: GpH7-B3 variant P331_18N/GpL16-k0 (antibody, human IgG1, kappa)
heavy: not shown
light: B1 light
notes: as for B2
B43: GpH7-B3 variant Y296_06M/GpL16-k0 (antibody, human IgG1, kappa)
heavy: not shown
light: B1 light
notes: as for B2
B44: GpH7-B3 variant Y300_18N/GpL16-k0 (antibody, human IgG1, kappa)
heavy: not shown
light: B1 light
notes: as for B2
B45: GpH7-B3 variant S337_04F/GpL16-k0 (antibody, human IgG1, kappa)
heavy: not shown
light: B1 light
notes: as for B2
B46: GpH7-B3 variant Y296_09D/GpL16-k0 (antibody, human IgG1, kappa)
heavy: not shown
light: B1 light
notes: as for B2
B47: GpH7-B3 variant T335_19Q/GpL16-k0 (antibody, human IgG1, kappa)
heavy: not shown
light: B1 light
notes: as for B2
B48: GpH7-B3 variant V266_06M/GpL16-k0 (antibody, human IgG1, kappa)
heavy: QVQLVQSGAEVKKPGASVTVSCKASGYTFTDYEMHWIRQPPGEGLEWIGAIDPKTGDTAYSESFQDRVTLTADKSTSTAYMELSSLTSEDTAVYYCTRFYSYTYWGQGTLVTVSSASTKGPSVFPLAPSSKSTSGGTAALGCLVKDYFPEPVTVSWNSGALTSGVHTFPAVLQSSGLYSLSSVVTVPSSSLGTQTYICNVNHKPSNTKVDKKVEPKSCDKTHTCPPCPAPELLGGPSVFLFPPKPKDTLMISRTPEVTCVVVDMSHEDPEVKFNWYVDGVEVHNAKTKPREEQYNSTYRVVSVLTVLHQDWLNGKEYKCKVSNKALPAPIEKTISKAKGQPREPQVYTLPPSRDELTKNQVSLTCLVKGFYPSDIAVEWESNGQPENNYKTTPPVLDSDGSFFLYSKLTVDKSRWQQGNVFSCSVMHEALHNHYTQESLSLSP
light: B1 light
notes: as for B2
B49: GpH7-B3 variant Y296_04F/GpL16-k0 (antibody, human IgG1, kappa)
heavy: not shown
light: B1 light
notes: as for B2
B50: GpH7-B3 variant Y296_14T/GpL16-k0 (antibody, human IgG1, kappa)
heavy: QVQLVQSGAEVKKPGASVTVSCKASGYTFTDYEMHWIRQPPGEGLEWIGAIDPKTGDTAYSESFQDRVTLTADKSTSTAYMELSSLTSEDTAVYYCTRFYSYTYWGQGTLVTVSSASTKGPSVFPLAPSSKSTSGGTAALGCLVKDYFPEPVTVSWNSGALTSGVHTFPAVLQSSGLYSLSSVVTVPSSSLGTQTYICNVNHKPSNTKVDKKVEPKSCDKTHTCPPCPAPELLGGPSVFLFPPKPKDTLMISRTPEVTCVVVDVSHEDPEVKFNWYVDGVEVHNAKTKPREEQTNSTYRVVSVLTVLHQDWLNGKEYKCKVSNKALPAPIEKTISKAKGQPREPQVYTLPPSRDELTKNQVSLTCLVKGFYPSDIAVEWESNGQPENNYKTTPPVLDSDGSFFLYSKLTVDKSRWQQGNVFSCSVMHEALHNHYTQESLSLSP
light: B1 light
notes: as for B2
B51: GpH7-B3 variant T335_07I/GpL16-k0 (antibody, human IgG1, kappa)
heavy: not shown
light: B1 light
notes: as for B2
B52: GpH7-B3 variant Y296_18N/GpL16-k0 (antibody, human IgG1, kappa)
heavy: not shown
light: B1 light
notes: as for B2
B53: GpH7-B3 variant S337_18N/GpL16-k0 (antibody, human IgG1, kappa)
heavy: not shown
light: B1 light
notes: as for B2
B54: GpH7-B3 variant Y296_16H/GpL16-k0 (antibody, human IgG1, kappa)
heavy: not shown
light: B1 light
notes: as for B2

What follows are binders tested against T2, FcγRIIIa extracellular domain with C-terminal His tag (human, UniProt P08637 17-208) (assay: SPR relative binding; GpH7-A5/GpH7-B3/GpL16-k0 = 100).
T2 construct: extracellular domain; also called FcgRIIIa; 3a; not shown: His tag at the C terminus
Experimental: (§1) Analysis of interaction between objective antibody and the FcγR was carried out using Biacore T100 (GE Healthcare). HBS-EP+ (GE Healthcare) was used as the running buffer, and the measurement temperature was set to 25° C. Chips produced by immobilizing the antigen peptide by the amine coupling method to a Series S Sencor Chip CM5 (GE Healthcare), or alternatively, chips produced by allowing preliminarily biotinylated antigen peptides to interact with and immobilize onto a Series S Sensor Chip SA (certified) (GE Healthcare) were used. Antibodies of interest were captured onto an antigen peptide-immobilized chip, and allowed to interact to each FcγR diluted with running buffer. To regenerate and repeatedly use the chip, the antibodies captured on the chip were washed off by reacting 10 mM glycine-HCl, pH 1.5.
(§2) The FcγR-binding activity of each antibody was assessed primarily using as an indicator the FcγR-binding activity and dissociation constant for FcγR.

He/Con_3a | Binder
155 % of control | B1

Each binder was assayed against T1, FcγRIIa R (human FcγRIIa, allotype R, …) (assay: SPR (Biacore), relative binding vs GpH7-B3/GpL16-k0).
Experimental: as §1, §2

Ho/Con_2aR | Binder
97.7 relative, control = 100 | B2
107 relative, control = 100 | B3
110 relative, control = 100 | B4
167 relative, control = 100 | B5
101 relative, control = 100 | B6
100 relative, control = 100 | B7
82.9 relative, control = 100 | B8
99.2 relative, control = 100 | B9
103 relative, control = 100 | B10
80.8 relative, control = 100 | B11
88.9 relative, control = 100 | B12
102 relative, control = 100 | B13
100 relative, control = 100 | B14
102 relative, control = 100 | B15
110 relative, control = 100 | B16
114 relative, control = 100 | B17
85.3 relative, control = 100 | B18
102 relative, control = 100 | B19
101 relative, control = 100 | B20
83.1 relative, control = 100 | B21
90.2 relative, control = 100 | B22
102 relative, control = 100 | B23
105 relative, control = 100 | B24
104 relative, control = 100 | B25
100 relative, control = 100 | B26
107 relative, control = 100 | B27
102 relative, control = 100 | B28

Ho/Con_2aR | Binder
94 relative, control = 100 | B29
109 relative, control = 100 | B30
88.1 relative, control = 100 | B31
92.3 relative, control = 100 | B32
94.6 relative, control = 100 | B33
101 relative, control = 100 | B34
99.4 relative, control = 100 | B35
102 relative, control = 100 | B36
102 relative, control = 100 | B37
93.9 relative, control = 100 | B38
101 relative, control = 100 | B39
118 relative, control = 100 | B40
107 relative, control = 100 | B41
76.9 relative, control = 100 | B42
84 relative, control = 100 | B43
87.6 relative, control = 100 | B44
98.3 relative, control = 100 | B45
94.5 relative, control = 100 | B46
102 relative, control = 100 | B47
146 relative, control = 100 | B48
106 relative, control = 100 | B49
90.3 relative, control = 100 | B50
107 relative, control = 100 | B51
93.7 relative, control = 100 | B52
103 relative, control = 100 | B53
89.5 relative, control = 100 | B54
